Assay results: patent US10125171 (APELLIS PHARMACEUTICALS, dated 2018)

B1: CA28-AEEAc-Lys-(PEG30k) (peptide)
peptide: ICVWQDWGAHRCTK
modifications: N-terminal acetyl; 1-methyl-tryptophan at position 4; disulfide Cys2-Cys12; AEEAc (8-amino-3,6-dioxaoctanoic acid) spacer between Thr13 and the C-terminal Lys; linear monofunctional 30 kD PEG coupled (NHS ester) to the Lys side chain; C-terminal amide
B2: CA28-AEEAc-Lys-(PEG40k) (peptide)
peptide: ICVWQDWGAHRCTK
modifications: N-terminal acetyl; 1-methyl-tryptophan at position 4; disulfide Cys2-Cys12; AEEAc (8-amino-3,6-dioxaoctanoic acid) spacer between Thr13 and the C-terminal Lys; linear monofunctional 40 kD PEG coupled (NHS ester) to the Lys side chain; C-terminal amide
B3: (CA28-AEEAc)8-PEG40k (peptide)
peptide: ICVWQDWGAHRCTK
modifications: N-terminal acetyl; 1-methyl-tryptophan at position 4; disulfide Cys2-Cys12; AEEAc spacer between Thr13 and the C-terminal Lys; Lys side chain coupled to one arm of an eight-arm 40 kD PEG (hexaglycerol octa(succinimidyloxyglutaryl)polyoxyethylene); C-terminal amide

Biological target: human complement component C3 (human, UniProt P01024 23-1663)
Assay: cell-based or functional assay

human complement component C3, sequence (P01024 23-1663 limits assumed): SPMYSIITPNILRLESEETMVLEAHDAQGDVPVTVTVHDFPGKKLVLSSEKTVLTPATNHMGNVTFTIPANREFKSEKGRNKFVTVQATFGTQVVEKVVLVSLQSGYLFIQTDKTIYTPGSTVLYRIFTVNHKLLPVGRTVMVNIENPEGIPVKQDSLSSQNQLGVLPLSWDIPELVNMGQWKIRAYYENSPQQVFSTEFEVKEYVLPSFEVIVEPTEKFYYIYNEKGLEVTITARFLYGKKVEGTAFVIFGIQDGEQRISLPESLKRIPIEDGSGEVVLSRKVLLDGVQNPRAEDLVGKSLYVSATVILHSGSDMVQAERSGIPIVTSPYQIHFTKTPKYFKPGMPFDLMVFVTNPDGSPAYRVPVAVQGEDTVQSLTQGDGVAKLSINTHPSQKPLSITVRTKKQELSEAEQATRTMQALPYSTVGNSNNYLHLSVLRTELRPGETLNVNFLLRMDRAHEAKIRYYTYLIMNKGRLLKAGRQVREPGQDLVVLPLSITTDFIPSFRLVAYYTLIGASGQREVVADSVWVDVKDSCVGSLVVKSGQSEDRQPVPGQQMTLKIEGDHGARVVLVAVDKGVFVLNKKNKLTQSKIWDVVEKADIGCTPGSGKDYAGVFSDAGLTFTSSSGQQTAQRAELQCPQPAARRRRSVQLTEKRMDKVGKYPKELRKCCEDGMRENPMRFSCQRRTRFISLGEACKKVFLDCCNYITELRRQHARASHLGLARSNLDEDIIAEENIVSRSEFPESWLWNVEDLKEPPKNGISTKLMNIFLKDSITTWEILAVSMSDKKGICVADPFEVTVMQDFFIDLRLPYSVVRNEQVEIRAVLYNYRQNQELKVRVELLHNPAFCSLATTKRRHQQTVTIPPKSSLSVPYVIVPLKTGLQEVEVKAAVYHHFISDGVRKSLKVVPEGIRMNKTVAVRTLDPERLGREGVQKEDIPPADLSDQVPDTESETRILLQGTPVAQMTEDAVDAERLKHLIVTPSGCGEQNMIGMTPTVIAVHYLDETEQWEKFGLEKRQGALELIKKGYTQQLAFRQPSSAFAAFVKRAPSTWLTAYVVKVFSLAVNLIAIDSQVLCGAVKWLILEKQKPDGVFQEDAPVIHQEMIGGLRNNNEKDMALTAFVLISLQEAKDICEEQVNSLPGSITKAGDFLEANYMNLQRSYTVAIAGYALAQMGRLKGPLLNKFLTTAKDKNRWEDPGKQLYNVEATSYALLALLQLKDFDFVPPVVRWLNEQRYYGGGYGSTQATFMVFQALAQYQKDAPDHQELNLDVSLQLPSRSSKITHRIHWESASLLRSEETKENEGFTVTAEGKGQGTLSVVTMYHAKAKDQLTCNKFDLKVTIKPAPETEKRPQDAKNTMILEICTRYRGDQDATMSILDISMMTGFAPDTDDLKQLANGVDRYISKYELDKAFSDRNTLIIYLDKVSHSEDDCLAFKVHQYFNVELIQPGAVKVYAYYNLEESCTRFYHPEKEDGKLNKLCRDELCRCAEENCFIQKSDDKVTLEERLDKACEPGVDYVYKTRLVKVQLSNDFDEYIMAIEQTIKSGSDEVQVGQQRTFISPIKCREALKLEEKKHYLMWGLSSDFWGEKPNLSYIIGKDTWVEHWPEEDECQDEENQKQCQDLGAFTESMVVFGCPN

Row | Binder | activity relative to CA28 on a molar basis, classical complement inhibition assay | complement inhibiting activity relative to CA28 on a molar basis | IC50 on a molar basis (corrected for 7.5 CA28 moieties per molecule), classical complement inhibition assay (C3b deposition ELISA, human plasma)
1 | B1 | ~30% | ~30 % of the activity of CA28 | 
2 | B2 | ~30% | ~30 % of the activity of CA28 | 
3 | B3 |  |  | ~0.26 µM
